The assay deals with Purified human ACSS2 (bacterially expressed) (human, UniProt Q9NR19 1-701). The experiment in a line: pull-down.
Purified human ACSS2 (bacterially expressed), sequence (Q9NR19 whole entry): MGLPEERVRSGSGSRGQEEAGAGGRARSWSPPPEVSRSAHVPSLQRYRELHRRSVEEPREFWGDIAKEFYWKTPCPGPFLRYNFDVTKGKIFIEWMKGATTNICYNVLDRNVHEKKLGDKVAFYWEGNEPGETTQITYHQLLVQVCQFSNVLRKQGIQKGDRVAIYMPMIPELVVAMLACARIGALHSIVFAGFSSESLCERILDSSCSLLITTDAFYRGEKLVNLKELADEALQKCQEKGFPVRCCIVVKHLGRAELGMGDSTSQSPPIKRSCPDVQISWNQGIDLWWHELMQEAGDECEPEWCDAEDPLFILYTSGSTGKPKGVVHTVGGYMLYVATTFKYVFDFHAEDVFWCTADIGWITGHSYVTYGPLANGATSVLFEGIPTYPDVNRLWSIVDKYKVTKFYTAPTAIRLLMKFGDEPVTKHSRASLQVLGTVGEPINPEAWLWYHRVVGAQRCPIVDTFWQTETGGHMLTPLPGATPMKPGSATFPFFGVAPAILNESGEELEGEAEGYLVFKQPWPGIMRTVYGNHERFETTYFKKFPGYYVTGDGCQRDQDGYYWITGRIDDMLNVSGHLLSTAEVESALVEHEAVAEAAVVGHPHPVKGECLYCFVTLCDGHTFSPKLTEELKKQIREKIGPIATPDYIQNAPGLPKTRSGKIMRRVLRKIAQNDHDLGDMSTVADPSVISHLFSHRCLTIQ

B1: Purified human PAICS (bacterially expressed) (natural protein, UniProt P22234 1-425, looked up)
chain: MATAEVLNIGKKLYEGKTKEVYELLDSPGKVLLQSKDQITAGNAARKNHLEGKAAISNKITSCIFQLLQEAGIKTAFTRKCGETAFIAPQCEMIPIEWVCRRIATGSFLKRNPGVKEGYKFYPPKVELFFKDDANNDPQWSEEQLIAAKFCFAGLLIGQTEVDIMSHATQAIFEILEKSWLPQNCTLVDMKIEFGVDVTTKEIVLADVIDNDSWRLWPSGDRSQQKDKQSYRDLKEVTPEGLQMVKKNFEWVAERVELLLKSESQCRVVVLMGSTSDLGHCEKIKKACGNFGIPCELRVTSAHKGPDETLRIKAEYEGDGIPTVFVAVAGRSNGLGPVMSGNTAYPVISCPPLTPDWGVQDVWSSLRLPSGLGCSTVLSPEGSAQFAAQIFGLSNHLVWSKLRASILNTWISLKQADKKIRECNL
As for B1, the binding result is recorded as “binds”.

Source of the values: paper PMC11871226 (Nature Communications, 2025).
